Measurements as given in article PMC8528422 (Science Advances, 2021).
Changes are numbered by the printed parent chain. In names and notes the source's numbering stands.

B1: FleN, full length (residues 1 to 280), wild type (natural protein, Pseudomonas aeruginosa, UniProt G3XD64 1-280, looked up)
chain: MKQMGSMHPVQVIAVTGGKGGVGKTNVSVNLALALADLGRRVMLLDADLGLANVDVLLGLTPKRTLADVIEGRCELRDVLLLGPGGVRIVPAASGTQSMVHLSPMQHAGLIQAFSDISDNLDVLVVDTAAGIGDSVVSFVRAAQEVLLVVCDEPTSITDAYALIKLLNRDHGMTRFRVLANMAHSPQEGRNLFAKLTKVTDRFLDVALQYVGVIPYDESVRKAVQKQRAVYEAFPRSKASLAFKAVAQKVDSWPLPANPRGHLEFFVERLVQHPATGSAV
B2: FleQ AAA+ ATPase (central) domain, residues 142 to 395 (domain or fragment)
chain: not shown
modifications: biotin (EZ-Link NHS-PEG4-Biotin) for the BLI assay
B3: FleN L263W (natural protein, Pseudomonas aeruginosa, UniProt G3XD64 1-280, looked up)
chain: B1 chain with L263W
B4: FleN D48A (natural protein, Pseudomonas aeruginosa, UniProt G3XD64 1-280, looked up)
chain: B1 chain with D48A
B5: FleN truncated by 25 amino acids at the C terminus, residues 1 to 255 (domain or fragment, Pseudomonas aeruginosa, UniProt G3XD64 1-255, looked up)
chain: MKQMGSMHPVQVIAVTGGKGGVGKTNVSVNLALALADLGRRVMLLDADLGLANVDVLLGLTPKRTLADVIEGRCELRDVLLLGPGGVRIVPAASGTQSMVHLSPMQHAGLIQAFSDISDNLDVLVVDTAAGIGDSVVSFVRAAQEVLLVVCDEPTSITDAYALIKLLNRDHGMTRFRVLANMAHSPQEGRNLFAKLTKVTDRFLDVALQYVGVIPYDESVRKAVQKQRAVYEAFPRSKASLAFKAVAQKVDSWPL

Experiments:
[1] = biological target: FleQ, full length (FleQFL) (Pseudomonas aeruginosa, UniProt G3XCV0 1-490, biotin (EZ-Link NHS-PEG4-Biotin) for the BLI assay); assay: BLI
Sequence of FleQ, full length (FleQFL) (G3XCV0 whole entry): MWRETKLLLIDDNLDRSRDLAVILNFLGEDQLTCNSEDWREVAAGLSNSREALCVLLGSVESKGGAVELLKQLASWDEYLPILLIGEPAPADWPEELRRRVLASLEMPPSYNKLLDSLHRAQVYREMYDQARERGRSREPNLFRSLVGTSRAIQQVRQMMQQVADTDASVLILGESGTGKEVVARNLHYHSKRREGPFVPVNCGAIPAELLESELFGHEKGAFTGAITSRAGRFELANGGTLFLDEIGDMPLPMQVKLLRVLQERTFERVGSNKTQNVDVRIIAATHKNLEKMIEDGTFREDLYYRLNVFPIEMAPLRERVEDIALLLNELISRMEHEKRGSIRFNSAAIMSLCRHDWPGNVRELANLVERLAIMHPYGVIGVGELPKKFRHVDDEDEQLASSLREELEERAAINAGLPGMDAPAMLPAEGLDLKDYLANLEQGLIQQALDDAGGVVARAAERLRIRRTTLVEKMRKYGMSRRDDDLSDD

crystal structure = biological target: the molecule itself; assay: crystal structure
[2] = biological target: B1; assay: BLI
cross-linking = biological target: the molecule itself; assay: cross-linking

B1
Kd [1]: 0.34 µM | stoichiometry N (crystal structure): 2

B2
Kd [2]: 0.26 µM

B3
fold change of KD against WT FleN [1]: 100 fold | stoichiometry N (cross-linking): 2

B4
binding result [1]: binds

B5
stoichiometry N (cross-linking): 2
